# Test results taken from paper PMC5733473.
# System: SinR (Bacillus subtilis)
# Experiment: EMSA
# Settings: EMSA: 15 mM Tris-Cl, 4 mM MOPS-KOH, 15 mM KCl, 50 mM NaCl, 0.8 mM MgCl2, 0.6 mM DTT, 12.5% glycerol, pH 7.8, 1 ug poly(dI-dC) in 16 ul, 20 fmol probe, 28 C …
substance,measurement,setting,value
PkinB(-55/+10) WT,Kd,"SinR-2 site, binding stated",> 100 nM
PkinB(-75/+10) delta5 G-45A,Kd,SinR-2 site (SinR-1 not bound),10 nM
PkinB(-75/-7) delta5 G-45A,Kd,SinR-2 site,10 nM
PkinB(-31/+104),Kd,"SinR-2 site, binding stated",> 100 nM
Fm0 PkinB(-39/+104),Kd,"SinR-2 site, binding stated (also given as >100 nM)",> 400 nM
PkinB(-75/+10) G-45A,binding signal (fold lower affinity),SinR-1 site (upper band),2
Rm0 PkinB(-124/-38),Kd,SinR-1 site,50 nM
